Reference: PMC7367873, “Dissecting the sequence determinants for dephosphorylation by the catalytic subunits of phosphatases PP1 and PP2A” (Nature Communications, 2020)

B1: BST2 (protein, UniProt Q10589 1-161, looked up)
Bone marrow stromal antigen 2: MASTSYDYCRVPMEDGDKRCKLLLGIGILVLLIIVILGVPLIIFTIKANSEACRDGLRAVMECRNVTHLLQQELTEAQKGFQDVEAQAATCNHTVMALMASLDAEKAQGQKKVEELEGEITTLNHKLQDASAEVERLRRENQVLSVRIADKKYYPSSQDSS
B2: HNRNPM (protein, UniProt P52272 2-730, looked up)
Heterogeneous nuclear …: AAGVEAAAEVAATEIKMEEESGAPGVPSGNGAPGPKGEGERPAQNEKRKEKNIKRGGNRFEPYANPTKRYRAFITNIPFDVKWQSLKDLVKEKVGEVTYVELLMDAEGKSRGCAVVEFKMEESMKKAAEVLNKHSLSGRPLKVKEDPDGEHARRAMQKVMATTGGMGMGPGGPGMITIPPSILNNPNIPNEIIHALQAGRLGSTVFVANLDYKVGWKKLKEVFSMAGVVVRADILEDKDGKSRGIGTVTFEQSIEAVQAISMFNGQLLFDRPMHVKMDERALPKGDFFPPERPQQLPHGLGGIGMGLGPGGQPIDANHLNKGIGMGNIGPAGMGMEGIGFGINKMGGMEGPFGGGMENMGRFGSGMNMGRINEILSNALKRGEIIAKQGGGGGGGSVPGIERMGPGIDRLGGAGMERMGAGLGHGMDRVGSEIERMGLVMDRMGSVERMGSGIERMGPLGLDHMASSIERMGQTMERIGSGVERMGAGMGFGLERMAAPIDRVGQTIERMGSGVERMGPAIERMGLSMERMVPAGMGAGLERMGPVMDRMATGLERMGANNLERMGLERMGANSLERMGLERMGANSLERMGPAMGPALGAGIERMGLAMGGGGGASFDRAIEMERGNFGGSFAGSFGGAGGHAPGVARKACQIFVRNLPFDFTWKMLKDKFNECGHVLYADIKMENGKSKGCGVVKFESPEVAERACRMMNGMKLSGREIDVRIDRNA
B3: FARP1 (protein, UniProt Q9Y4F1 1-1045, looked up)
FERM, ARHGEF and pleckstrin …: MGEIEQRPTPGSRLGAPENSGISTLERGQKPPPTPSGKLVSIKIQMLDDTQEAFEVPQRAPGKVLLDAVCNHLNLVEGDYFGLEFPDHKKITVWLDLLKPIVKQIRRPKHVVVKFVVKFFPPDHTQLQEELTRYLFALQVKQDLAQGRLTCNDTSAALLISHIVQSEIGDFDEALDREHLAKNKYIPQQDALEDKIVEFHHNHIGQTPAESDFQLLEIARRLEMYGIRLHPAKDREGTKINLAVANTGILVFQGFTKINAFNWAKVRKLSFKRKRFLIKLRPDANSAYQDTLEFLMASRDFCKSFWKICVEHHAFFRLFEEPKPKPKPVLFSRGSSFRFSGRTQKQVLDYVKEGGHKKVQFERKHSKIHSIRSLASQPTELNSEVLEQSQQSTSLTFGEGAESPGGQSCRRGKEPKVSAGEPGSHPSPAPRRSPAGNKQADGAASAPTEEEEEVVKDRTQQSKPQPPQPSTGSLTGSPHLSELSVNSQGGVAPANVTLSPNLSPDTKQASPLISPLLNDQACPRTDDEDEGRRKRFPTDKAYFIAKEVSTTERTYLKDLEVITSWFQSTVSKEDAMPEALKSLIFPNFEPLHKFHTNFLKEIEQRLALWEGRSNAQIRDYQRIGDVMLKNIQGMKHLAAHLWKHSEALEALENGIKSSRRLENFCRDFELQKVCYLPLNTFLLRPLHRLMHYKQVLERLCKHHPPSHADFRDCRAALAEITEMVAQLHGTMIKMENFQKLHELKKDLIGIDNLVVPGREFIRLGSLSKLSGKGLQQRMFFLFNDVLLYTSRGLTASNQFKVHGQLPLYGMTIEESEDEWGVPHCLTLRGQRQSIIVAASSRSEMEKWVEDIQMAIDLAEKSSSPAPEFLASSPPDNKSPDEATAADQESEDDLSASRTSLERQAPHRGNTMVHVCWHRNTSVSMVDFSIAVENQLSGNLLRKFKNSNGWQKLWVVFTNFCLFFYKSHQDNHPLASLPLLGYSLTIPSESENIQKDYVFKLHFKSHVYYFRAESEYTFERWMEVIRSATSSASRPHVLSHKESLVY
B4: DNAJC10 (protein, UniProt Q8IXB1 33-793, looked up)
DnaJ homolog subfamily C …: DQDFYSLLGVSKTASSREIRQAFKKLALKLHPDKNPNNPNAHGDFLKINRAYEVLKDEDLRKKYDKYGEKGLEDNQGGQYESWNYYRYDFGIYDDDPEIITLERREFDAAVNSGELWFVNFYSPGCSHCHDLAPTWRDFAKEVDGLLRIGAVNCGDDRMLCRMKGVNSYPSLFIFRSGMAPVKYHGDRSKESLVSFAMQHVRSTVTELWTGNFVNSIQTAFAAGIGWLITFCSKGGDCLTSQTRLRLSGMLDGLVNVGWMDCATQDNLCKSLDITTSTTAYFPPGATLNNKEKNSILFLNSLDAKEIYLEVIHNLPDFELLSANTLEDRLAHHRWLLFFHFGKNENSNDPELKKLKTLLKNDHIQVGRFDCSSAPDICSNLYVFQPSLAVFKGQGTKEYEIHHGKKILYDILAFAKESVNSHVTTLGPQNFPANDKEPWLVDFFAPWCPPCRALLPELRRASNLLYGQLKFGTLDCTVHEGLCNMYNIQAYPTTVVFNQSNIHEYEGHHSAEQILEFIEDLMNPSVVSLTPTTFNELVTQRKHNEVWMVDFYSPWCHPCQVLMPEWKRMARTLTGLINVGSIDCQQYHSFCAQENVQRYPEIRFFPPKSNKAYHYHSYNGWNRDAYSLRIWGLGFLPQVSTDLTPQTFSEKVLQGKNHWVIDFYAPWCGPCQNFAPEFELLARMIKGKVKAGKVDCQAYAQTCQKAGIRAYPTVKFYFYERAKRNFQEEQINTRDAKAIAALISEKLETLRNQGKRNKDEL
B5: SPECC1 (protein, UniProt Q5M775 1-1068, looked up)
Cytospin-B: MRSAAKPWNPAIRAGGHGPDRVRPLPAASSGMKSSKSSTSLAFESRLSRLKRASSEDTLNKPGSTAASGVVRLKKTATAGAISELTESRLRSGTGAFTTTKRTGIPAPREFSVTVSRERSVPRGPSNPRKSVSSPTSSNTPTPTKHLRTPSTKPKQENEGGEKAALESQVRELLAEAKAKDSEINRLRSELKKYKEKRTLNAEGTDALGPNVDGTSVSPGDTEPMIRALEEKNKNFQKELSDLEEENRVLKEKLIYLEHSPNSEGAASHTGDSSCPTSITQESSFGSPTGNQMSSDIDEYKKNIHGNALRTSGSSSSDVTKASLSPDASDFEHITAETPSRPLSSTSNPFKSSKCSTAGSSPNSVSELSLASLTEKIQKMEENHHSTAEELQATLQELSDQQQMVQELTAENEKLVDEKTILETSFHQHRERAEQLSQENEKLMNLLQERVKNEEPTTQEGKIIELEQKCTGILEQGRFEREKLLNIQQQLTCSLRKVEEENQGALEMIKRLKEENEKLNEFLELERHNNNMMAKTLEECRVTLEGLKMENGSLKSHLQGEKQKATEASAVEQTAESCEVQEMLKVARAEKDLLELSCNELRQELLKANGEIKHVSSLLAKVEKDYSYLKEICDHQAEQLSRTSLKLQEKASESDAEIKDMKETIFELEDQVEQHRAVKLHNNQLISELESSVIKLEEQKSDLERQLKTLTKQMKEETEEWRRFQADLQTAVVVANDIKCEAQQELRTVKRKLLEEEEKNARLQKELGDVQGHGRVVTSRAAPPPVDEEPESSEVDAAGRWPGVCVSRTSPTPPESATTVKSLIKSFDLGRPGGAGQNISVHKTPRSPLSGIPVRTAPAAAVSPMQRHSTYSSVRPASRGVTQRLDLPDLPLSDILKGRTETLKPDPHLRKSPSLESLSRPPSLGFGDTRLLSASTRAWKPQSKLSVERKDPLAALAREYGGSKRNALLKWCQKKTQGYANIDITNFSSSWSDGLAFCALLHTYLPAHIPYQELNSQEKKRNLLLAFEAAESVGIKPSLELSEMLYTDRPDWQSVMQYVAQIYKYFET
B6: SNRPA1 (protein, UniProt P09661 2-255, looked up)
U2 small nuclear …: VKLTAELIEQAAQYTNAVRDRELDLRGYKIPVIENLGATLDQFDAIDFSDNEIRKLDGFPLLRRLKTLLVNNNRICRIGEGLDQALPCLTELILTNNSLVELGDLDPLASLKSLTYLSILRNPVTNKKHYRLYVIYKVPQVRVLDFQKVKLKERQEAEKMFKGKRGAQLAKDIARRSKTFNPGAGLPTDKKKGGPSPGDVEAIKNAIANASTLAEVERLKGLLQSGQIPGRERRSGPTDDGEEEMEEDTVTNGS
B7: TUBB6 (protein, UniProt Q9BUF5 1-446, looked up)
Tubulin beta-6 chain: MREIVHIQAGQCGNQIGTKFWEVISDEHGIDPAGGYVGDSALQLERINVYYNESSSQKYVPRAALVDLEPGTMDSVRSGPFGQLFRPDNFIFGQTGAGNNWAKGHYTEGAELVDAVLDVVRKECEHCDCLQGFQLTHSLGGGTGSGMGTLLISKIREEFPDRIMNTFSVMPSPKVSDTVVEPYNATLSVHQLVENTDETYCIDNEALYDICFRTLKLTTPTYGDLNHLVSATMSGVTTSLRFPGQLNADLRKLAVNMVPFPRLHFFMPGFAPLTSRGSQQYRALTVPELTQQMFDARNMMAACDPRHGRYLTVATVFRGPMSMKEVDEQMLAIQSKNSSYFVEWIPNNVKVAVCDIPPRGLKMASTFIGNSTAIQELFKRISEQFSAMFRRKAFLHWFTGEGMDEMEFTEAESNMNDLVSEYQQYQDATANDGEEAFEDEEEEIDG
B8: SLC1A5 (protein, UniProt Q15758 1-541, looked up)
Neutral amino acid …: MVADPPRDSKGLAAAEPTANGGLALASIEDQGAAAGGYCGSRDQVRRCLRANLLVLLTVVAVVAGVALGLGVSGAGGALALGPERLSAFVFPGELLLRLLRMIILPLVVCSLIGGAASLDPGALGRLGAWALLFFLVTTLLASALGVGLALALQPGAASAAINASVGAAGSAENAPSKEVLDSFLDLARNIFPSNLVSAAFRSYSTTYEERNITGTRVKVPVGQEVEGMNILGLVVFAIVFGVALRKLGPEGELLIRFFNSFNEATMVLVSWIMWYAPVGIMFLVAGKIVEMEDVGLLFARLGKYILCCLLGHAIHGLLVLPLIYFLFTRKNPYRFLWGIVTPLATAFGTSSSSATLPLMMKCVEENNGVAKHISRFILPIGATVNMDGAALFQCVAAVFIAQLSQQSLDFVKIITILVTATASSVGAAGIPAGGVLTLAIILEAVNLPVDHISLILAVDWLVDRSCTVLNVEGDALGAGLLQNYVDRTESRSTEPELIQVKSELPLDPLPVPTEEGNPLLKHYRGPAGDATVASEKESVM
B9: PHF6 (protein, UniProt Q8IWS0 2-365, looked up)
PHD finger protein 6: SSSVEQKKGPTRQRKCGFCKSNRDKECGQLLISENQKVAAHHKCMLFSSALVSSHSDNESLGGFSIEDVQKEIKRGTKLMCSLCHCPGATIGCDVKTCHRTYHYHCALHDKAQIREKPSQGIYMVYCRKHKKTAHNSEADLEESFNEHELEPSSPKSKKKSRKGRPRKTNFKGLSEDTRSTSSHGTDEMESSSYRDRSPHRSSPSDTRPKCGFCHVGEEENEARGKLHIFNAKKAAAHYKCMLFSSGTVQLTTTSRAEFGDFDIKTVLQEIKRGKRMKCTLCSQPGATIGCEIKACVKTYHYHCGVQDKAKYIENMSRGIYKLYCKNHSGNDERDEEDEERESKSRGKVEIDQQQLTQQQLNGN

Test system: GFP-14-3-3β and its binding proteins
Test: GFP-14-3-3β co-IP with LC-MS/MS label-free quantification, untreated versus PP1c-treated
Parameters: species or system human
Conditions: log2 difference; pairwise comparison PP1 vs untreated, label-free quantification, 3 replicates each

Difference (log2), PP1 vs untreated | Molecule
1.808 | B1

Same assay, conditions: pairwise comparison PP1 vs untreated

Difference (log2), PP1 vs untreated [log2] | Molecule
-0.01052 | B2
-0.03585 | B3
-0.01679 | B4
-0.005819 | B5
-0.04086 | B6
-0.03516 | B7
-0.02668 | B8
0.0136 | B9

Test system: GFP-14-3-3β
Test: GFP-14-3-3β co-IP with LC-MS/MS, untreated GFP-14-3-3β versus GFP control (14-3-3 interactome)
Type: binding, human
Conditions: log2 difference; pairwise comparison untreated vs GFP, label-free quantification, 3 replicates each

Molecule | Difference (log2), untreated vs GFP
B1 | -3.2427

Same assay, conditions: pairwise comparison untreated vs GFP

Molecule | Difference (log2), untreated vs GFP [log2]
B2 | 0.1311
B3 | 0.5364
B4 | 0.1892
B5 | 0.2064
B6 | 0.8199
B7 | -0.8713
B8 | 0.7589
B9 | 0.8956
